Experimental data published in paper PMC6599887, “Exploration of the TRIM Fold of MuRF1 Using EPR Reveals a Canonical Antiparallel Structure and Extended COS-Box” (Journal of Molecular Biology, 2019).

B1: MuRF1-HD R230C (cysteine-null background), MTSSL-labelled (domain or fragment, UniProt Q969Q1 155-328, looked up)
chain: EVAPLQSVFQGQKTELNNSISMLVAGNDRVQTIITQLEDSRRVTKENSHQVKEELSQKFDTLYAILDEKKSELLQCITQEQEKKLSFIEALIQQYQEQLDKSTKLVETAIQSLDEPGGATFLLTAKQLIKSIVEASKGSQLGKTEQGFENMDFFTLDLEHIADALRAIDFGTDE
modifications: MTSSL spin label (R1) on cysteine 230
notes: MuRF1 (TRIM63) helical domain, residues 155-328 of UniProtKB Q969Q1; also called R230R1; not shown: His6, N-terminal, cleaved; SUMO, N-terminal, cleaved
B2: MuRF1-HD E313C (cysteine-null background), MTSSL-labelled (domain or fragment, UniProt Q969Q1 155-328, looked up)
chain: EVAPLQSVFQGQKTELNNSISMLVAGNDRVQTIITQLEDSRRVTKENSHQVKEELSQKFDTLYAILDEKKSELLQRITQEQEKKLSFIEALIQQYQEQLDKSTKLVETAIQSLDEPGGATFLLTAKQLIKSIVEASKGSQLGKTEQGFENMDFFTLDLCHIADALRAIDFGTDE
modifications: MTSSL spin label (R1) on cysteine 313
notes: MuRF1 (TRIM63) helical domain, residues 155-328 of UniProtKB Q969Q1; also called E313R1; not shown: His6, N-terminal, cleaved; SUMO, N-terminal, cleaved
B3: MuRF1-HD E243C (cysteine-null background), MTSSL-labelled (domain or fragment, UniProt Q969Q1 155-328, looked up)
chain: EVAPLQSVFQGQKTELNNSISMLVAGNDRVQTIITQLEDSRRVTKENSHQVKEELSQKFDTLYAILDEKKSELLQRITQEQEKKLSFICALIQQYQEQLDKSTKLVETAIQSLDEPGGATFLLTAKQLIKSIVEASKGSQLGKTEQGFENMDFFTLDLEHIADALRAIDFGTDE
modifications: MTSSL spin label (R1) on cysteine 243
notes: MuRF1 (TRIM63) helical domain, residues 155-328 of UniProtKB Q969Q1; also called E243R1; not shown: His6, N-terminal, cleaved; SUMO, N-terminal, cleaved
B4: MuRF1-HD R320C (cysteine-null background), MTSSL-labelled (domain or fragment, UniProt Q969Q1 155-328, looked up)
chain: EVAPLQSVFQGQKTELNNSISMLVAGNDRVQTIITQLEDSRRVTKENSHQVKEELSQKFDTLYAILDEKKSELLQRITQEQEKKLSFIEALIQQYQEQLDKSTKLVETAIQSLDEPGGATFLLTAKQLIKSIVEASKGSQLGKTEQGFENMDFFTLDLEHIADALCAIDFGTDE
modifications: MTSSL spin label (R1) on cysteine 320
notes: MuRF1 (TRIM63) helical domain, residues 155-328 of UniProtKB Q969Q1; also called R320R1; E320R1 (as printed once); not shown: His6, N-terminal, cleaved; SUMO, N-terminal, cleaved
B5: MuRF1-HD K297C (cysteine-null background), MTSSL-labelled (domain or fragment, UniProt Q969Q1 155-328, looked up)
chain: EVAPLQSVFQGQKTELNNSISMLVAGNDRVQTIITQLEDSRRVTKENSHQVKEELSQKFDTLYAILDEKKSELLQRITQEQEKKLSFIEALIQQYQEQLDKSTKLVETAIQSLDEPGGATFLLTAKQLIKSIVEASKGSQLGCTEQGFENMDFFTLDLEHIADALRAIDFGTDE
modifications: MTSSL spin label (R1) on cysteine 297
notes: MuRF1 (TRIM63) helical domain, residues 155-328 of UniProtKB Q969Q1; also called K297R1; not shown: His6, N-terminal, cleaved; SUMO, N-terminal, cleaved
B6: MuRF1-HD E192C (cysteine-null background), MTSSL-labelled (domain or fragment, UniProt Q969Q1 155-328, looked up)
chain: EVAPLQSVFQGQKTELNNSISMLVAGNDRVQTIITQLCDSRRVTKENSHQVKEELSQKFDTLYAILDEKKSELLQRITQEQEKKLSFIEALIQQYQEQLDKSTKLVETAIQSLDEPGGATFLLTAKQLIKSIVEASKGSQLGKTEQGFENMDFFTLDLEHIADALRAIDFGTDE
modifications: MTSSL spin label (R1) on cysteine 192
notes: MuRF1 (TRIM63) helical domain, residues 155-328 of UniProtKB Q969Q1; also called E192R1; not shown: His6, N-terminal, cleaved; SUMO, N-terminal, cleaved
B7: MuRF1-HD K212C (cysteine-null background), MTSSL-labelled (domain or fragment, UniProt Q969Q1 155-328, looked up)
chain: EVAPLQSVFQGQKTELNNSISMLVAGNDRVQTIITQLEDSRRVTKENSHQVKEELSQCFDTLYAILDEKKSELLQRITQEQEKKLSFIEALIQQYQEQLDKSTKLVETAIQSLDEPGGATFLLTAKQLIKSIVEASKGSQLGKTEQGFENMDFFTLDLEHIADALRAIDFGTDE
modifications: MTSSL spin label (R1) on cysteine 212
notes: MuRF1 (TRIM63) helical domain, residues 155-328 of UniProtKB Q969Q1; also called K212R1; not shown: His6, N-terminal, cleaved; SUMO, N-terminal, cleaved
B8: MuRF1-HD E200C (cysteine-null background), MTSSL-labelled (domain or fragment, UniProt Q969Q1 155-328, looked up)
chain: EVAPLQSVFQGQKTELNNSISMLVAGNDRVQTIITQLEDSRRVTKCNSHQVKEELSQKFDTLYAILDEKKSELLQRITQEQEKKLSFIEALIQQYQEQLDKSTKLVETAIQSLDEPGGATFLLTAKQLIKSIVEASKGSQLGKTEQGFENMDFFTLDLEHIADALRAIDFGTDE
modifications: MTSSL spin label (R1) on cysteine 200
notes: MuRF1 (TRIM63) helical domain, residues 155-328 of UniProtKB Q969Q1; also called E200R1; not shown: His6, N-terminal, cleaved; SUMO, N-terminal, cleaved
B9: MuRF1-HD E222C (cysteine-null background), MTSSL-labelled (domain or fragment, UniProt Q969Q1 155-328, looked up)
chain: EVAPLQSVFQGQKTELNNSISMLVAGNDRVQTIITQLEDSRRVTKENSHQVKEELSQKFDTLYAILDCKKSELLQRITQEQEKKLSFIEALIQQYQEQLDKSTKLVETAIQSLDEPGGATFLLTAKQLIKSIVEASKGSQLGKTEQGFENMDFFTLDLEHIADALRAIDFGTDE
modifications: MTSSL spin label (R1) on cysteine 222
notes: MuRF1 (TRIM63) helical domain, residues 155-328 of UniProtKB Q969Q1; also called E222R1; not shown: His6, N-terminal, cleaved; SUMO, N-terminal, cleaved
B10: MuRF1-HD doubly labelled at E192R1 and R320R1 (cysteine-null background) (domain or fragment, UniProt Q969Q1 155-328, looked up)
chain: EVAPLQSVFQGQKTELNNSISMLVAGNDRVQTIITQLCDSRRVTKENSHQVKEELSQKFDTLYAILDEKKSELLQRITQEQEKKLSFIEALIQQYQEQLDKSTKLVETAIQSLDEPGGATFLLTAKQLIKSIVEASKGSQLGKTEQGFENMDFFTLDLEHIADALCAIDFGTDE
modifications: MTSSL spin label (R1) on cysteines 192 and 320
notes: MuRF1 (TRIM63) helical domain, residues 155-328 of UniProtKB Q969Q1; The double mutant is told only as labels placed at E192R1 and R320R1 simultaneously; the cysteine-null background follows from the methods; also called double-labeled sample; not shown: His6, N-terminal, cleaved; SUMO, N-terminal, cleaved
B11: MuRF1-HD F163C/L276C (in cysteine-null background) (domain or fragment, UniProt Q969Q1 155-328, looked up)
chain: EVAPLQSVCQGQKTELNNSISMLVAGNDRVQTIITQLEDSRRVTKENSHQVKEELSQKFDTLYAILDEKKSELLQRITQEQEKKLSFIEALIQQYQEQLDKSTKLVETAIQSLDEPGGATFCLTAKQLIKSIVEASKGSQLGKTEQGFENMDFFTLDLEHIADALRAIDFGTDE
modifications: disulfide bonds between the introduced cysteines after spontaneous oxidation
notes: MuRF1 (TRIM63) helical domain, residues 155-328 of UniProtKB Q969Q1; not shown: His6, N-terminal, cleaved; SUMO, N-terminal, cleaved
B12: MuRF1-HD S202C/Q235C (in cysteine-null background) (domain or fragment, UniProt Q969Q1 155-328, looked up)
chain: EVAPLQSVFQGQKTELNNSISMLVAGNDRVQTIITQLEDSRRVTKENCHQVKEELSQKFDTLYAILDEKKSELLQRITQECEKKLSFIEALIQQYQEQLDKSTKLVETAIQSLDEPGGATFLLTAKQLIKSIVEASKGSQLGKTEQGFENMDFFTLDLEHIADALRAIDFGTDE
modifications: disulfide bonds between the introduced cysteines after spontaneous oxidation
notes: as for B11
B13: MuRF1-HD V184C/L253C (in cysteine-null background) (domain or fragment, UniProt Q969Q1 155-328, looked up)
chain: EVAPLQSVFQGQKTELNNSISMLVAGNDRCQTIITQLEDSRRVTKENSHQVKEELSQKFDTLYAILDEKKSELLQRITQEQEKKLSFIEALIQQYQEQCDKSTKLVETAIQSLDEPGGATFLLTAKQLIKSIVEASKGSQLGKTEQGFENMDFFTLDLEHIADALRAIDFGTDE
modifications: disulfide bonds between the introduced cysteines after spontaneous oxidation
notes: as for B11

Target: the molecule itself
Assay: PELDOR (pulsed EPR, DEER); MTSSL-labelled protein, 100 to 200 uM MuRF1 dimer, deuterated Hepes pH 8.0/NaCl buffer mixed 1:1 with D8-glycerol, flash frozen; Q-band, 50 K; distances between labels across the protomers of the dimer

Protein	binding result
B1	binds
B2	binds
B3	binds
B4	binds
B5	binds
B6	binds
B7	binds
B8	binds
B9	binds
B10	binds

Target: the molecule itself
Assay: cross-linking; zero-length disulfide cross-linking by spontaneous oxidation: 20 uM protein reduced in 50 mM Tris-HCl pH 8.0, 100 mM NaCl, 20 mM beta-mercaptoethanol, dialysed overnight at 4 °C into the same buffer without reducing agent; non-reducing against reducing SDS-PAGE, Coomassie staining

Protein	stoichiometry N
B11	2
B12	2
B13	2
